# Test results as given in the domain aggregation screens of Martell et al. (2025).
# Experiment: soluble fraction after stress (log2 fold change); higher = more stays soluble; pooled small domains, quantitative proteomics
# Conditions: stress: pH 4
# In short: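 Custom libraries of small protein domains were pooled and measured with high-throughput quantitative proteomics after pH 4 stress. The read-out is the fold change in the amount of each domain that stays soluble after the acid stress, taken as a measure of aggregation propensity. Fold changes are on a log2 scale, and higher values mean more of the domain stayed soluble.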
row,Sequence,soluble fraction (log2)
1,HMGQTYTITINPTPADAKVIIDGVATNSVEAIDGRTLIWSVSKPGYLTKSGNYTVTGKNETLNIVLKEDPD,-0.283
2,HMGQVLEGVFRRKANGKNAFIPDGGGEPILVAERNSAHAMDGDRVKATLLARRKHHVREAQVTEILKRSSK,0.0841
3,HMGQVSDENQLNKVIDEVIKNYPIQVEQFKAGKEPILQFLKGMVMKATEGSADPAVAEKLLRKKL,0.0192
4,HMGQYLDAATVAAVYHAYHARNWTQATLAKELKVARPTLSNVLNGREAPSVELAARIRAFLGSPEP,≥ 0.43
5,HMGRAAEETETFRTQGELDARIKELQGQMRDAAANLEFERAAGLRDTLKRLRTRGLGLSASP,-0.0313
6,HMGRENGTVKWFNTSKGFGFITRDDGGDVFVHFRSIQGEGHRALQEGQRVSYVVANRDKGLQAEDVTILN,-0.107
7,HMGRKRLADYGLNDTEQKIVRKIADGLSNREIAQALYLSEGTVKNYITDILGKLELRDRTQIAIFYLREIG,-0.244
8,HMGRLTTKIVLYDRIENIVPERRKELVADIEKRIGVKVEVLEIGHVDFVRDAAWLKVSYYLAPGE,-1.35
9,HMGRNSTPKEPLKKFEVSPITEKEVRILDGRFGPYITDGATNVTVPKTITIEEITFERALDMLAEKAAKGP,-0.153
10,HMGRPQISDELRNAIIEVAKDNRDWGYIRIQGQLKYLGYRVSTATIGKVLKKAGLEPQPDRRRK,-0.667
11,HMGRPWRIGDVVNVSRPTGDGGGFTKGLITRIYPTTVQVTWNPDLQHARPWTTMEKKQYLIFVYHDDE,≥ 0.43
12,HMGRQTITLPDFSGQDLEQVKARLTEWGLVPEEKSVFSDSVPLGSVVRTVPAEGDEVSVGDTVTVYKSLGR,0.252
13,HMGRRDLSWQPAAGGVSIDGLKAGEAWTLFGLNGRILKQGYAPEGQMSLAVNAGLFVLRGAESGVIRIAVA,-0.255
14,HMGRSYTIKSGDTLWAIATRYYGNGAQYSKIYNANKGTIESVAKSRGFRSSQNGHWIFPGTSITI,0.056
15,HMGRTITVGIAEDADIKDIAKMLEEKGLISDYRLFVVQELLSAQHDKIKPGIYDLSTDMKAEEMLEILAG,-1.33
16,HMGRTKEEIFNILKERIVTLQYEPGKILNEIELSEEFEVSRTPIRTVFQQLEAVKLVSIVPRYGVQVA,-1.11
17,HMGRYATVPDVVGSTPEVARELIRSEGLRYVLSEETVYSDSDTGTVGRTDPESGTRMSADDEVVVYLS,-1.27
18,HMGRYVIQIASFSSKNNAIEAADKLGGFVVQSGRFYRVRTGPFATRGEADAALASARRVGYRDAFIDTS,-0.233
19,HMGSAIAHAIASLPDRYRELLLLKYDTGYSEKEIAQLLGMTEANVKKTIQRAKAKLQTLLDEMEA,-0.354
20,HMGSAKAQLYDLMNAHQVTRNQIQDIVAEKGYFPAGTPIENYPDDFVKGVLVGAWDQVHKAILDKEI,-0.437
21,HMGSEISLNAFNIPKGSVSVTAGGTKLVENQDYTVDYTLGRIKILNEGILNSGVPIQVNFENNTLFN,-0.087
22,HMGSEYILTIIPTPADATVFINGVKKNSASGVNGQILSWEVTKEGYIPQSGTFTINGKNETIEVVLQPQT,-0.577
23,HMGSFFSKATAPVRTTGGDGLYKHGSIWFNTSTGRLFVYIPDDRYTGLLDTHNGDIGYWVDVS,-1.22
24,HMGSFGAMLKRNRKLAGLTQEQLAEKLDVSTVAVQNWESGKNQIRSEKLTKLSYLFNIPLETLIHEMLIS,0.0247
25,HMGSFISADEALAKALSHAGLDQSAIRELEMDSELDDDVPHYSIDFKSGNLEYEYEISATDGSVLKFEQD,-0.0935

row,Sequence,soluble fraction (log2)
1,HMGSKEQELVILNNILERQLQAINLQKSAAGPMVNLRNVHNTLTKLVEAAGLKNVETYFTDPVIGAAQ,-0.543
2,HMGSNTLEDAYKVLGITPDATDDEVRKAYKKMVIQHHPDKVANLGEDVKKAATIKLQEINNAKEIIFKARN,0.192
3,HMGSQSYVAIVNERFKESDIVELGGSVGSRTGDIITLHFRNSSPNELKNITGIVYLQVANKVTPKL,-0.875
4,HMGSTDTLEDALEAAEKISYPVIIKATAGGGGRGMKVASSLEELKKVYHTTKLEAKNAFGNDQVYIEKYL,-0.0649
5,HMGSTYGISRVDNETSRTHGWLVTIQRRGVIYRKHFSDGVFGGKQRSFAAAKEYRDEVIAAHP,-0.00453
6,HMGSVVATLRKLIIDGHYPAGTRLAEIPVANALGVSRTPVRLAFRTLQQEGLLQTVGKRGIVVRAF,0.137
7,HMGSWDDFFNAIRLDNPNTLQALLQRGFDPNTVDQQGTPALMRALQEQSYRAAEVLADHPQI,-0.584
8,HMGTAGLSPWHKIAVLMIALGPEGASELMRHFGEDEVEQVVQAIADLKNVPSELQDAVLLEMEGALQEG,-0.796
9,HMGTDVFIMTGGTRKRGATWSYYFDLGKIDGKRQKKEKGGFKTKKEAETALAKAINEYNNAGA,0.175
10,HMGTFIATVEANSLDIYKSMSSNETIGKANKGEVFQILEDMGSGYARVSYNDVEGYLSIRDGDATIEE,-1.54
11,HMGTGADQVSWKTGDKVTHKKWGEGTVVKVSGSGNDKELDIAFPQQGVKRLLASFAPIKKVT,-0.0102
12,HMGTGQTNEKLAVLTNIQKTQEQILLTLGAKNPLVNLKQYRETLAKILSLSGYKNSNEFFLDPM,-0.25
13,HMGTGTYQVWSANGLGVRMRSGPGTGYRILAVYSVGTSVTVLQKGAYWSYIRVGSRTGYMMNQFLVSG,-0.268
14,HMGTGVEQGKQYRTLKRDFDGASGIKVNGDFYRLRTSDTGMTELPAGTEVTFERFDGTTAVVHT,0.196
15,HMGTHPGIDSGIISDILALKKELPTRSAAKIITMLTLAGKMEENSIHVKTVNRILYQYGYTRDTLS,-0.222
16,HMGTITKRTNPSGAVVWRAQIRINKADMPTYSESKTFSKKSLATEWLKRREAEIEANPDLIL,≥ 0.43
17,HMGTKDVNAAPSAVGRTYDEAIEILNGYKAGYLEEYSDTVPKGTVISQSVQDGQVVIVVSLGPKPS,-0.18
18,HMGTKVGAPLPGTITEVKVKVGDTVKAGDAVIILEAMKMQNNIEAEVSGTVSSVLVKEGDTVMEGDALITI,-1.18
19,HMGTLNLSQAYREWGMAEIEANRDYYGPVRFDDIAFQMSPAGQQLQARFVASYADRLHDAIEGEL,-1.68
20,HMGTLRPKGTVVFANLPIAADAKEGDMYNISDQFTTTASFKEGAGNVIPAGSNVYRTDDGFWDVL,0.193
21,HMGTPEQSAQFEQVLEELKNVPGPVMKAMQRAQDIYGYLPIEIQSRIGQAFGVSLEEVYGIATFYSQFNL,-2.6
22,HMGTQKVQVVNGPINVRSGPGPTFEKIGMVEDQAVYQVVSKKDDWFQISLPGNKTAWVAGWLVKEIK,-0.0241
23,HMGTRHPLPYAFAKAHTVLLEDDGDRLLLHAAENSGPSALGEILRLYDVDALERETASTLANRIAVAYAG,0.163
24,HMGTSGLTIPRFVSLASGTVHMRAGPGVRYPITWIYKRLGTPLMVMAEHEFWRKVRDAEGTEGWMHRSLLS,-0.00785
25,HMGTSIMIIIVKPETKKERVNDLIHWIESQNLRTHLSTGDYSTIIGVIGDTSKLDSELIRGLDIVENVKRV,-1.24
